Experimental data reported in article PMC9482650, “Quantitative fragmentomics allow affinity mapping of interactomes” (Nature Communications, 2022).

B1: GOLT1A, Q6ZVE7 (peptide)
chain: RRLQGTSSMV
B2: PKN2, Q16513 (peptide)
chain: RDFDYIADWC
B3: TNRC6A, Q8NDV7 (peptide)
chain: DHLGGGGESM
B4: IGF1R, P08069 (peptide)
chain: ALPLPQSSTC
B5: ADGRA1, Q86SQ6 (peptide)
chain: TGPWKNETTV
B6: GNG4, P50150 (peptide)
chain: REKKFFCTIL

Key:
Assay in all cases: holdup assay
Design in all cases: key: below the threshold = too weak to quantify, mostly under pKd 3.1 to 4
Conditions in all cases: plain residues with an end cap or a label only (N-terminal biotin on a linker: ado-ado)
GRIP1_3, Q9Y3R0 = target: T1, GRIP1_3, Q9Y3R0
T1 sequence (Q9Y3R0 247-346, limits assumed, looked up): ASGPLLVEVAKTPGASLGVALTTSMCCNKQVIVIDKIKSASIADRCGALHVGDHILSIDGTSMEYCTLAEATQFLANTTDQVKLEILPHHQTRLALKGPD

MAGI2_5, Q86UL8 = target: MAGI2_5, Q86UL8
FRMPD2_2, Q68DX3 = target: FRMPD2_2, Q68DX3
DFNB31_3, Q9P202 = target: T2, DFNB31_3, Q9P202
T2 sequence (Q9P202 811-907, limits assumed, looked up): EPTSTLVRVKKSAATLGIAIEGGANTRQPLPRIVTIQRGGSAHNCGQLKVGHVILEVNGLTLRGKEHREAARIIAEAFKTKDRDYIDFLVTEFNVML

PTPN3, P26045 = target: PTPN3, P26045
DLG1_3, Q12959 = target: DLG1_3, Q12959
DLG2_3, Q15700 = target: DLG2_3, Q15700
Inadl_4, Q8NI35 = target: Inadl_4, Q8NI35
RADIL, Q96JH8 = target: T3, RADIL, Q96JH8
T3 sequence (Q96JH8 971-1071, limits assumed, looked up): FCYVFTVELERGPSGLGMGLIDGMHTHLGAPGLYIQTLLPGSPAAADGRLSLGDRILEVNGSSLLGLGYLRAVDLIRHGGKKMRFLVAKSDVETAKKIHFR

SCRIB_3, Q14160 = target: SCRIB_3, Q14160
MAGI2_2, Q86UL8 = target: MAGI2_2, Q86UL8
GORASP1, Q9BQQ3 = target: GORASP1, Q9BQQ3
GRIP2_3, Q9C0E4 = target: GRIP2_3, Q9C0E4
DLG1_2, Q12959 = target: DLG1_2, Q12959
LNX2_3, Q8N448 = target: T4, LNX2_3, Q8N448
T4 sequence (Q8N448 463-564, limits assumed, looked up): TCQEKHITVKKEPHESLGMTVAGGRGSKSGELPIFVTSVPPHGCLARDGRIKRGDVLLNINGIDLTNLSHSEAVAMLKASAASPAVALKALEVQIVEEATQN

MPDZ_10, O75970 = target: T5, MPDZ_10, O75970
T5 sequence (O75970 1624-1722, limits assumed, looked up): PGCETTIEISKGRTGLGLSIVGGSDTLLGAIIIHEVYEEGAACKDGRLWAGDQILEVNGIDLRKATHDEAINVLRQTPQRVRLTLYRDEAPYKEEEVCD

NHERF3_1, Q5T2W1 = target: T6, NHERF3_1, Q5T2W1
T6 sequence (Q5T2W1 4-100, limits assumed, looked up): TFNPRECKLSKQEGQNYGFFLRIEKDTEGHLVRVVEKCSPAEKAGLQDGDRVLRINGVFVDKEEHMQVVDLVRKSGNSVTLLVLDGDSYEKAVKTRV

GRIP2_5, Q9C0E4 = target: GRIP2_5, Q9C0E4
MAGI2_6, Q86UL8 = target: MAGI2_6, Q86UL8
SNTA1, Q13424 = target: T7, SNTA1, Q13424
T7 sequence (Q13424 82-180, limits assumed, looked up): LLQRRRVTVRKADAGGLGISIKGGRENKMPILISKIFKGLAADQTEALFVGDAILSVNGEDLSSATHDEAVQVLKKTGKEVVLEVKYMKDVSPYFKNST

GRIP1_5, Q9Y3R0 = target: T8, GRIP1_5, Q9Y3R0
T8 sequence (Q9Y3R0 568-668, limits assumed, looked up): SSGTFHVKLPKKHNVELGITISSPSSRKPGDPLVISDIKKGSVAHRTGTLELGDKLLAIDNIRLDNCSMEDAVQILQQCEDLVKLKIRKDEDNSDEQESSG

Inadl_1, Q8NI35 = target: Inadl_1, Q8NI35
ARHGEF11, O15085 = target: T9, ARHGEF11, O15085
T9 sequence (O15085 42-136, limits assumed, looked up): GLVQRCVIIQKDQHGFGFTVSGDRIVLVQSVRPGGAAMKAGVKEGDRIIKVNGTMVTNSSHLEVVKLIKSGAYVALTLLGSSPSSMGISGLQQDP

MAGI3_2, Q5TCQ9 = target: MAGI3_2, Q5TCQ9
NHERF4_2, Q86UT5 = target: NHERF4_2, Q86UT5
CARD11, Q9BXL7 = target: T10, CARD11, Q9BXL7
T10 sequence (Q9BXL7 662-765, limits assumed, looked up): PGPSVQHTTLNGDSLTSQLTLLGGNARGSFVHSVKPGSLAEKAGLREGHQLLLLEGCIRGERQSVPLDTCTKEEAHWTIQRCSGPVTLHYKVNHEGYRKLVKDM

HTRA2, O43464 = target: HTRA2, O43464
Chain of HTRA2, O43464 (O43464 355-458): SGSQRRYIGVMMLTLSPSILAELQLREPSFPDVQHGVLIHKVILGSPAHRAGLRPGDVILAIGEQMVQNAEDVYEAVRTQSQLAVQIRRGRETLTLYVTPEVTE

Chain of MAGI2_5, Q86UL8 (Q86UL8 915-1017): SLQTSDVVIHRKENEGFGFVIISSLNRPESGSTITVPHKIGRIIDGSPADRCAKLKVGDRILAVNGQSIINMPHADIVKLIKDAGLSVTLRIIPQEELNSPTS
Chain of NHERF4_2, Q86UT5 (Q86UT5 220-308): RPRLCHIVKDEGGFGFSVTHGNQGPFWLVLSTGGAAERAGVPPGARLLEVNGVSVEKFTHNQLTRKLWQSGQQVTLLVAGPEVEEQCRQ
Chain of DLG1_2, Q12959 (Q12959 314-412): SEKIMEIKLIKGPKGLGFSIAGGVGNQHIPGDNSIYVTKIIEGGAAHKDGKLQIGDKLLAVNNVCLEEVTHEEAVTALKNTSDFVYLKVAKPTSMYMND
Chain of FRMPD2_2, Q68DX3 (Q68DX3 944-1038): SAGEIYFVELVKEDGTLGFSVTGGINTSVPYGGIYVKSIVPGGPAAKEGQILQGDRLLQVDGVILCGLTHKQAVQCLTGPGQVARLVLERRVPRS
Chain of Inadl_1, Q8NI35 (Q8NI35 113-229): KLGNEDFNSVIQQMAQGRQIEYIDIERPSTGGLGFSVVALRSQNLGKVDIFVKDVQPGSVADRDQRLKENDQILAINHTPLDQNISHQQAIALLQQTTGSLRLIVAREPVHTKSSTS
Chain of GORASP1, Q9BQQ3 (Q9BQQ3 1-208): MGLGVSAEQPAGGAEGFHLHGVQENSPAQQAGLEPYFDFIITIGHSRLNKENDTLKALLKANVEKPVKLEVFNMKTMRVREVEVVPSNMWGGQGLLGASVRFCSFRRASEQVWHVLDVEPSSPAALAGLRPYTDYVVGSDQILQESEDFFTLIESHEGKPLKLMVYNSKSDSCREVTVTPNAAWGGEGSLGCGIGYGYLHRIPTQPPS
Chain of GRIP2_5, Q9C0E4 (Q9C0E4 544-642): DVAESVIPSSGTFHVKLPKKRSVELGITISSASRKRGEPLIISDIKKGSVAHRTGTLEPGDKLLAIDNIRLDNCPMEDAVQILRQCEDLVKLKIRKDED
Chain of MAGI2_2, Q86UL8 (Q86UL8 410-522): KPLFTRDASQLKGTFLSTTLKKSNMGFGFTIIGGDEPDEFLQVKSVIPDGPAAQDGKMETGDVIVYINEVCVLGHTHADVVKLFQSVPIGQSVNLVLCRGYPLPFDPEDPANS
Chain of MAGI2_6, Q86UL8 (Q86UL8 1141-1229): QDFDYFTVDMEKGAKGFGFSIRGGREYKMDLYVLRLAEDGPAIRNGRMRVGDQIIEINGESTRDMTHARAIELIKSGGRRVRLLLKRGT
Chain of DLG1_3, Q12959 (Q12959 457-571): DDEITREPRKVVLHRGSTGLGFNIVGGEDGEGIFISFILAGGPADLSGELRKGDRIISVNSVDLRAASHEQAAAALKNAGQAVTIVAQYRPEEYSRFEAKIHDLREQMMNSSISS
Chain of SCRIB_3, Q14160 (Q14160 999-1103): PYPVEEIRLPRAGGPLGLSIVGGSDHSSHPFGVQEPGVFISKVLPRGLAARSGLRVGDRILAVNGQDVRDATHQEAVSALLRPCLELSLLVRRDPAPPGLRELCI
Chain of Inadl_4, Q8NI35 (Q8NI35 547-651): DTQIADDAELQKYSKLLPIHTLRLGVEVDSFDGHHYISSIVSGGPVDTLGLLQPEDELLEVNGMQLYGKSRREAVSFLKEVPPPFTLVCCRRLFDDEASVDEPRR
Chain of MAGI3_2, Q5TCQ9 (Q5TCQ9 398-503): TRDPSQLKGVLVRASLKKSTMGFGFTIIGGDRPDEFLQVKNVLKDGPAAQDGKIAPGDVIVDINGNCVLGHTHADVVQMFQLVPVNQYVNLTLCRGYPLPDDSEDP
Chain of PTPN3, P26045 (P26045 505-587): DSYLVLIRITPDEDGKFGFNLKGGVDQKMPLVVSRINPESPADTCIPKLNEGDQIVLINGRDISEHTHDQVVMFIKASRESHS
Chain of GRIP2_3, Q9C0E4 (Q9C0E4 238-339): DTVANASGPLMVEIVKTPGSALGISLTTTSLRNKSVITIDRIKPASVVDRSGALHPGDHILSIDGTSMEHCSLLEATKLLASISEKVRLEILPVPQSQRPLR

Binder	pKd (GRIP1_3, Q9Y3R0)	pKd (MAGI2_5, Q86UL8)	pKd (FRMPD2_2, Q68DX3)	pKd (DFNB31_3, Q9P202)	pKd (PTPN3, P26045)	pKd (DLG1_3, Q12959)	pKd (DLG2_3, Q15700)	pKd (Inadl_4, Q8NI35)	pKd (RADIL, Q96JH8)	pKd (SCRIB_3, Q14160)	pKd (MAGI2_2, Q86UL8)	pKd (GORASP1, Q9BQQ3)	pKd (GRIP2_3, Q9C0E4)	pKd (DLG1_2, Q12959)	pKd (LNX2_3, Q8N448)	pKd (MPDZ_10, O75970)	pKd (NHERF3_1, Q5T2W1)	pKd (GRIP2_5, Q9C0E4)	pKd (MAGI2_6, Q86UL8)	pKd (SNTA1, Q13424)	other results
B1	below the threshold	4	below the threshold	3.66	3.99	3.58	4.06	below the threshold	4.28	below the threshold	4.69	3.67	below the threshold	4.71	below the threshold	3.65	4.09	below the threshold	3.68	below the threshold	pKd (GRIP1_5, Q9Y3R0): below the threshold; pKd (Inadl_1, Q8NI35): below the threshold; pKd (ARHGEF11, O15085): below the threshold; pKd (MAGI3_2, Q5TCQ9): 5.02; pKd (NHERF4_2, Q86UT5): below the threshold; pKd (CARD11, Q9BXL7): below the threshold; pKd (HTRA2, O43464): below the threshold
B2	below the threshold	3.95	below the threshold	below the threshold	3.85	below the threshold	3.77	below the threshold	4.2	3.49	below the threshold	below the threshold	below the threshold	below the threshold	below the threshold	3.87	4.27	below the threshold	3.77	below the threshold	pKd (GRIP1_5, Q9Y3R0): below the threshold; pKd (Inadl_1, Q8NI35): below the threshold; pKd (ARHGEF11, O15085): 3.68; pKd (MAGI3_2, Q5TCQ9): below the threshold; pKd (NHERF4_2, Q86UT5): below the threshold; pKd (CARD11, Q9BXL7): below the threshold; pKd (HTRA2, O43464): 5.11
B3	below the threshold	below the threshold	below the threshold	below the threshold	3.7	below the threshold	below the threshold	below the threshold	below the threshold	below the threshold	below the threshold	below the threshold	below the threshold	below the threshold	below the threshold	below the threshold	below the threshold	below the threshold	below the threshold	below the threshold	pKd (GRIP1_5, Q9Y3R0): below the threshold; pKd (Inadl_1, Q8NI35): below the threshold; pKd (ARHGEF11, O15085): below the threshold; pKd (MAGI3_2, Q5TCQ9): below the threshold; pKd (NHERF4_2, Q86UT5): below the threshold; pKd (CARD11, Q9BXL7): below the threshold; pKd (HTRA2, O43464): below the threshold
B4	below the threshold	below the threshold	below the threshold	3.59	below the threshold	3.56	3.76	below the threshold	below the threshold	below the threshold	below the threshold	below the threshold	below the threshold	3.5	below the threshold	3.56	below the threshold	below the threshold	below the threshold	below the threshold	pKd (GRIP1_5, Q9Y3R0): below the threshold; pKd (Inadl_1, Q8NI35): below the threshold; pKd (ARHGEF11, O15085): 4.13; pKd (MAGI3_2, Q5TCQ9): below the threshold; pKd (NHERF4_2, Q86UT5): below the threshold; pKd (CARD11, Q9BXL7): below the threshold; pKd (HTRA2, O43464): below the threshold
B5	below the threshold	4.02	3.57	below the threshold	4.76	4.47	4.64	below the threshold	4.04	4.69	5.17	below the threshold	below the threshold	5.33	below the threshold	below the threshold	below the threshold	below the threshold	3.71	4.59	pKd (GRIP1_5, Q9Y3R0): below the threshold; pKd (Inadl_1, Q8NI35): below the threshold; pKd (ARHGEF11, O15085): 4.09; pKd (MAGI3_2, Q5TCQ9): 5.29; pKd (NHERF4_2, Q86UT5): below the threshold; pKd (CARD11, Q9BXL7): below the threshold; pKd (HTRA2, O43464): below the threshold
B6	below the threshold	4.86	below the threshold	4.62	4.47	4.35	4.41	below the threshold	5.25	4.91	4.63	5.07	below the threshold	4.3	below the threshold	4.3	5.43	below the threshold	4	4.35	pKd (GRIP1_5, Q9Y3R0): below the threshold; pKd (Inadl_1, Q8NI35): below the threshold; pKd (ARHGEF11, O15085): 5.34; pKd (MAGI3_2, Q5TCQ9): 4.87; pKd (NHERF4_2, Q86UT5): below the threshold; pKd (CARD11, Q9BXL7): 3.54; pKd (HTRA2, O43464): 4.49
